In the nanobody polyreactivity screen of Harvey et al. (2022):

Experiment: yeast display, Sf9 membrane polyspecificity reagent, FACS + sequencing; frameworks hold sequencing errors
How it was run: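 A synthetic nanobody library was expressed on Saccharomyces cerevisiae BJ5465 by galactose induction for 36–48 hours. The library was stained for 1 hour at 4 °C with 10% biotinylated, detergent-solubilized Sf9 membrane reagent and enriched with streptavidin microbeads before FACS. Low and high (top ~1%) gates were set on anti-HA fluorescence for expression and streptavidin fluorescence for reagent binding, and each polyreactivity label reflects the gate of origin.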

| Sequence | polyreactivity (PSR sort gate) |
| --- | --- |
| QVQLVESGGGLVQAGGSLRLTCAASGFTFSQYVMGWYRQAPGKERELVAAISYRGGSTYYADSVKGRFTISRDKAKNTVYLQLNSLKPEDTAVYYCAAVAYSWHNRYDYWGQGTQVTVSS | high polyreactivity |
| QVQLVESGGGLVQAGGSLRLTCAASGFTFTGNAMGWYRQAPGKEREFVAAISWSGGSTYYADSVKGRFTISRDNAKNTVYLQMNSLKPEDTAVYYCNKYRPYGRIYHLAYGRDYWGQGTQVTVSS | high polyreactivity |
| QVQLVESGGGLVQAGGSLRLTCAASGFTFWWYTMGWYRQATGKERELVATITSGGRTNYADSVKGRFTISRDNAKNTVYLQMNSLKPEDTAVYYCNRVAYYSRYDTDDYWGQGTQVTVSS | high polyreactivity |
| QVQLVESGGGLVQAGGSLRLTCAASGFTIAWNAMGWYRPSPGKERELVAAISAGGGSTYYADSVKGRFTISRDNAKNTVYLQMNSLKPEDTAVYYCAARRTFKYGSYAYYYWGQGTQVTVSS | high polyreactivity |
| QVQLVESGGGLVQAGGSLRLTCAASGGIFSYNAMGWYRQAPGKERELVAAISDSSTRTYYADSVKGRFTISRDNAKNTVYLQIKSLKPEDTAVYYCAARHSRTRHTSDYWGQGTQVTVSS | high polyreactivity |
| QVQLVESGGGLVQAGGSLRLTCAASGGIFYKYAKGWYRQAPGKEMELVAAITGRGGSTNYADSVKVRFTISRDNAKNTVYLQMNSLKPEDTAVYYCAARYTPTWSYGYWGQGTQVTVSS | low polyreactivity |
| QVQLVESGGGLVQAGGSLRLTCAASGIIFRVYAMGWYRQATGKERELVAAISQRGGSTYYADSVKGRFTISRDNAKNTVYLLMNSLKPEDTAVYYCAATAPAAAYRARYGYDYWGQGTQVTVSS | high polyreactivity |
| QVQLVESGGGLVQAGGSLRLTCAASGITFGGYAMGWYRQAPGKERELVATITSGGSTYYADSVKGRFTISRDNAKNTVYLQMNSLKPEDTAVYYCNAVYNYWFWGGYWHRPNARGDYWGQGTQVTVSS | high polyreactivity |
| QVQLVESGGGLVQAGGSLRLTCAASGITFVYNAMGWYRQAPGKERELVAAISWRGGSTYYADYVKGRFTISRDNAKNTVYLQMNSLKPEDTAVYYCNNLPTYPDYGYDSWGQGTQVTVSS | high polyreactivity |
| QVQLVESGGGLVQAGGSLRLTCAASGLIFGYNAMGWYRQAPGKEREFVAGISVIDGRTYYADSVKGRFTISRDNAKNTVYLQMISLKPEDTAVYYCAADRWYKYYFLTYGYWGQGTQVTVSS | low polyreactivity |
| QVQLVESGGGLVQAGGSLRLTCAASGLSSLRMLWDGIDRRLGKKGSWLPLLTSGGDSTNYADSVKGRFTISRDTAKNTVYLQIISLKPEDTAVYYCAADLDYPYGYWGQGTQVTVSS | low polyreactivity |
| QVQLVESGGGLVQAGGSLRLTCAASGLTFPSYSMGWYRQAPGKERELVAAIYYSGGSTYYADSVKGRFTISRDNAKITVYIHMNSLKPEDTAVYYCAADFTSFFNRIDYWGQGTQVTVSS | low polyreactivity |
| QVQLVESGGGLVQAGGSLRLTCAASGNIFYSYAMGWYRQAPGKERELVAAITIDGSTTYADSVKGRFTISRDNAKNTVYLQMNSLKPEDTAVYYCAKEGEAYPATYRYQFDYWGQGTQVTVSS | low polyreactivity |
| QVQLVESGGGLVQAGGSLRLTCAASGNTFDYYAMGWYRQAPGKERELVAAITRGGSTNYADSVKGRFTISRDNAKNTVYLQMNSLKPEDTAVYYCAAEQRAPRFADYDYWGQGTQVTVSS | low polyreactivity |
| QVQLVESGGGLVQAGGSLRLTCAASGNTFVSNAMGWYRQAPGKERELVAAINSGGSTNYADSVKGRFTISRDNAKNTVYLQMNSLKPEDTAVYYCNKDYDYPQRYWMDFWGQGTQVTVSS | low polyreactivity |
| QVQLVESGGGLVQAGGSLRLTCAASGNTFYGYAMGWYRQAPGKERELVASITLSGDSTYYADSVKGRFTISRDNAKNTVYLQMNSLKPEDTAVYYCAGVYTYPLGYFHYTYDYWGQVTQVTVSS | low polyreactivity |
